Target: ANTXR1, Q9H6X2-2
Sequence (Q9H6X2 other isoform, or with tags, fused parts or gaps): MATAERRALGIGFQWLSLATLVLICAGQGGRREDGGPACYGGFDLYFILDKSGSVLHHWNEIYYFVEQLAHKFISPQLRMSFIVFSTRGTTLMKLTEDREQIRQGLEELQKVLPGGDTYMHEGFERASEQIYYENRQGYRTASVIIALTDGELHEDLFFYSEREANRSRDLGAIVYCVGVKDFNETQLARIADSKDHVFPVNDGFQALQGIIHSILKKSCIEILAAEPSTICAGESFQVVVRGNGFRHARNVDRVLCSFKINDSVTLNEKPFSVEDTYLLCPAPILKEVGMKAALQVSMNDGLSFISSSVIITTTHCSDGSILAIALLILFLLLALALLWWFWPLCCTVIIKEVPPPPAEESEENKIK

Protective antigen (Bacillus anthracis) (from UniProt P13423) D712N
effect of a mutation on the interaction: decreasing interaction
